Test results reported in the supplement of paper PMC7877785.
± gives the uncertainty stated by the source.

Test: self-splicing fitness, log relative to wild type (ln ratio); higher = more splicing; Tetrahymena group I intron in knt gene, E. coli kanamycin selection, DiMSum; sequences stand for … in CUCUCU…GGAGGGAAAAGUUAUCAGGCAUGCACCUGGUAGCUAGUCUUUAAACCAAUAGAUUGCAUCGGUUUAAAAGGCAAGACCGUCAAAUUGCGGGAAAGGGGUCAACAGCCGUUCAGUACCAAGUCUCAGGGGAAACUUUGAGAUGGCCUUGCAAAGGGUAUGGUAAUAAGCUGACGGACAUGGUCCUAACCACGCAGCCAAGUCCUAAGUCAACAGAUCUUCUGUUGAUAUGGAUGCAGUUCACAGACUAAAUGUCGGUCGGGGAAGAUGUAUUCUUCUCAUAAGAUAUAGUCGGACCUCUCCUUAAUGGGAGCUAGCGGAUGAAGUGAUGCAACACUGGAGCCGCUGGGAACUAAUUUGUAUGCGAAAGUAUAUUGAUUAGUUUUGGAGUACUCGUGGUCG
Procedure, shortened: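 The eight P1ex-region nucleotides of an intron in the knt kanamycin-resistance gene on pET-22b(+) were all randomised and the library put into E. coli BL21(DE3). Six replicate transformations were grown overnight at 37°C or 30°C on LB agar with or without 25 μg/mL kanamycin, together with 100 μg/mL carbenicillin, 50 μM IPTG and 0.2% rhamnose. Colonies were pooled and amplicon-sequenced on an Illumina HiSeq 2500. Fitness from DiMSum is the error-weighted combination of wild-type-normalised replicate fold changes, kanamycin over none.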

## CCACAGCAAUAUUACGGUAG
30 °C
  self-splicing fitness (ln): -0.799 ± 0.046
37 °C
  self-splicing fitness (ln): -0.163 ± 0.065

## CCACAGCAAUAUUACGUCCC
30 °C
  self-splicing fitness (ln): -3.18 ± 0.43
37 °C
  self-splicing fitness (ln): -2.06 ± 0.4

## CCACAGCAAUAUUACGUCGA
30 °C
  self-splicing fitness (ln): -2.93 ± 0.11
37 °C
  self-splicing fitness (ln): -1.47 ± 0.099

## CCACAGCAAUAUUACGUGUA
30 °C
  self-splicing fitness (ln): -3.23 ± 0.096
37 °C
  self-splicing fitness (ln): -1.63 ± 0.069

## CCACAGCAAUAUUACGUUGG
30 °C
  self-splicing fitness (ln): -3.83 ± 0.11
37 °C
  self-splicing fitness (ln): -2.51 ± 0.13

## CCACAGCAAUAUUACGUUUA
30 °C
  self-splicing fitness (ln): -3.53 ± 0.15
37 °C
  self-splicing fitness (ln): -2.47 ± 0.16

## CCACAGCAAUAUUACGUUUG
30 °C
  self-splicing fitness (ln): -1.7 ± 0.054
37 °C
  self-splicing fitness (ln): -0.24 ± 0.069

## CCAGAGCAAUAUUACGCAGU
30 °C
  self-splicing fitness (ln): -3.22 ± 0.13
37 °C
  self-splicing fitness (ln): -3.42 ± 0.21

## CCAGAGCAAUAUUACGCCCG
30 °C
  self-splicing fitness (ln): -2.01 ± 0.26
37 °C
  self-splicing fitness (ln): -1.17 ± 0.37

## CCAGAGCAAUAUUACGCGUA
30 °C
  self-splicing fitness (ln): -1.99 ± 0.19
37 °C
  self-splicing fitness (ln): -4.46 ± 0.38

## CCAGAGCAAUAUUACGCGUG
30 °C
  self-splicing fitness (ln): -0.704 ± 0.069
37 °C
  self-splicing fitness (ln): -0.93 ± 0.095

## CCAGAGCAAUAUUACGCUAG
30 °C
  self-splicing fitness (ln): -3.84 ± 0.29
37 °C
  self-splicing fitness (ln): -2.38 ± 0.28

## CCAGAGCAAUAUUACGCUAU
30 °C
  self-splicing fitness (ln): -3.78 ± 0.43
37 °C
  self-splicing fitness (ln): -2.26 ± 0.37

## CCAGAGCAAUAUUACGGACG
30 °C
  self-splicing fitness (ln): -1.73 ± 0.069
37 °C
  self-splicing fitness (ln): -0.584 ± 0.085

## CCAGAGCAAUAUUACGGAGA
30 °C
  self-splicing fitness (ln): -2.38 ± 0.26

## CCAGAGCAAUAUUACGGAGC
30 °C
  self-splicing fitness (ln): -2.89 ± 0.35

## CCAGAGCAAUAUUACGGCGU
30 °C
  self-splicing fitness (ln): -4.2 ± 0.23
37 °C
  self-splicing fitness (ln): -3.29 ± 0.29

## CCAGAGCAAUAUUACGGCUA
30 °C
  self-splicing fitness (ln): -2.84 ± 0.2
37 °C
  self-splicing fitness (ln): -2.94 ± 0.4

## CCAGAGCAAUAUUACGGGAU
30 °C
  self-splicing fitness (ln): -4.38 ± 0.3
37 °C
  self-splicing fitness (ln): -2.48 ± 0.18

## CCAGAGCAAUAUUACGGGGA
30 °C
  self-splicing fitness (ln): -3.06 ± 0.18
37 °C
  self-splicing fitness (ln): -2.61 ± 0.21

## CCAGAGCAAUAUUACGGUCU
30 °C
  self-splicing fitness (ln): -4.02 ± 0.18
37 °C
  self-splicing fitness (ln): -2.31 ± 0.23

## CCAGAGCAAUAUUACGGUUG
30 °C
  self-splicing fitness (ln): -1.11 ± 0.089
37 °C
  self-splicing fitness (ln): -1.04 ± 0.13

## CCAGAGCAAUAUUACGUACA
37 °C
  self-splicing fitness (ln): -2.77 ± 0.29

## CCAGAGCAAUAUUACGUACU
37 °C
  self-splicing fitness (ln): -1.97 ± 0.18

## CCAGAGCAAUAUUACGUCGG
30 °C
  self-splicing fitness (ln): -4.42 ± 0.17
37 °C
  self-splicing fitness (ln): -2.2 ± 0.13

## CCAGAGCAAUAUUACGUCUU
30 °C
  self-splicing fitness (ln): -3.89 ± 0.21
37 °C
  self-splicing fitness (ln): -3.03 ± 0.2

## CCAGAGCAAUAUUACGUGGG
30 °C
  self-splicing fitness (ln): -3.73 ± 0.27
37 °C
  self-splicing fitness (ln): -2.29 ± 0.18

## CCAGAGCAAUAUUACGUUAG
30 °C
  self-splicing fitness (ln): -3.15 ± 0.097
37 °C
  self-splicing fitness (ln): -1.72 ± 0.097

## CCAUAGCAAUAUUACGACAU
30 °C
  self-splicing fitness (ln): -3.882 ± 0.026
37 °C
  self-splicing fitness (ln): -2.93 ± 0.04

## CCAUAGCAAUAUUACGAGGG
30 °C
  self-splicing fitness (ln): -3.56 ± 0.15
37 °C
  self-splicing fitness (ln): -2.25 ± 0.19

## CCAUAGCAAUAUUACGAUAC
30 °C
  self-splicing fitness (ln): -3 ± 0.29
37 °C
  self-splicing fitness (ln): -2.33 ± 0.23

## CCAUAGCAAUAUUACGAUAU
30 °C
  self-splicing fitness (ln): -3.76 ± 0.2
37 °C
  self-splicing fitness (ln): -2.97 ± 0.19

## CCAUAGCAAUAUUACGAUGG
30 °C
  self-splicing fitness (ln): -3.35 ± 0.17
37 °C
  self-splicing fitness (ln): -2.38 ± 0.18

## CCAUAGCAAUAUUACGAUGU
30 °C
  self-splicing fitness (ln): -3.94 ± 0.22
37 °C
  self-splicing fitness (ln): -2.71 ± 0.2

## CCAUAGCAAUAUUACGCACG
30 °C
  self-splicing fitness (ln): -0.758 ± 0.081
37 °C
  self-splicing fitness (ln): -0.715 ± 0.1

## CCAUAGCAAUAUUACGCCUG
30 °C
  self-splicing fitness (ln): -1.08 ± 0.084
37 °C
  self-splicing fitness (ln): 0.137 ± 0.099

## CCAUAGCAAUAUUACGCUUC
37 °C
  self-splicing fitness (ln): -2.24 ± 0.49

## CCAUAGCAAUAUUACGGAAU
30 °C
  self-splicing fitness (ln): -1.22 ± 0.15
37 °C
  self-splicing fitness (ln): -2.38 ± 0.2

## CCAUAGCAAUAUUACGGGUG
30 °C
  self-splicing fitness (ln): -1 ± 0.06
37 °C
  self-splicing fitness (ln): -1.48 ± 0.078

## CCAUAGCAAUAUUACGGGUU
30 °C
  self-splicing fitness (ln): -3.69 ± 0.17
37 °C
  self-splicing fitness (ln): -3.79 ± 0.34

## CCAUAGCAAUAUUACGGUCG
30 °C
  self-splicing fitness (ln): -0.61 ± 0.069
37 °C
  self-splicing fitness (ln): -0.291 ± 0.095

## CCAUAGCAAUAUUACGUACA
30 °C
  self-splicing fitness (ln): -3.14 ± 0.21
37 °C
  self-splicing fitness (ln): -1.96 ± 0.21

## CCAUAGCAAUAUUACGUCUC
30 °C
  self-splicing fitness (ln): -4.6 ± 0.28
37 °C
  self-splicing fitness (ln): -3.05 ± 0.22

## CCAUAGCAAUAUUACGUGGC
30 °C
  self-splicing fitness (ln): -4.63 ± 0.29
37 °C
  self-splicing fitness (ln): -2.43 ± 0.24

## CCAUAGCAAUAUUACGUGUC
30 °C
  self-splicing fitness (ln): -3.89 ± 0.2
37 °C
  self-splicing fitness (ln): -2.45 ± 0.23

## CCAUAGCAAUAUUACGUUGA
30 °C
  self-splicing fitness (ln): -3.57 ± 0.26
37 °C
  self-splicing fitness (ln): -2.31 ± 0.15

## CCAUAGCAAUAUUACGUUGG
30 °C
  self-splicing fitness (ln): -4.37 ± 0.25
37 °C
  self-splicing fitness (ln): -3.27 ± 0.24

## CCCAAGCAAUAUUACGACCG
30 °C
  self-splicing fitness (ln): -3.32 ± 0.24
37 °C
  self-splicing fitness (ln): -3.03 ± 0.47

## CCCAAGCAAUAUUACGAGCC
30 °C
  self-splicing fitness (ln): -3.79 ± 0.4
37 °C
  self-splicing fitness (ln): -2.79 ± 0.44
